Data as given in the supplement of paper PMC7877785.
± gives the uncertainty stated by the source.

Experiment: self-splicing fitness, log relative to wild type (ln ratio); higher = more splicing; Tetrahymena group I intron in knt gene, E. coli kanamycin selection, DiMSum; sequences stand for … in CUCUCU…GGAGGGAAAAGUUAUCAGGCAUGCACCUGGUAGCUAGUCUUUAAACCAAUAGAUUGCAUCGGUUUAAAAGGCAAGACCGUCAAAUUGCGGGAAAGGGGUCAACAGCCGUUCAGUACCAAGUCUCAGGGGAAACUUUGAGAUGGCCUUGCAAAGGGUAUGGUAAUAAGCUGACGGACAUGGUCCUAACCACGCAGCCAAGUCCUAAGUCAACAGAUCUUCUGUUGAUAUGGAUGCAGUUCACAGACUAAAUGUCGGUCGGGGAAGAUGUAUUCUUCUCAUAAGAUAUAGUCGGACCUCUCCUUAAUGGGAGCUAGCGGAUGAAGUGAUGCAACACUGGAGCCGCUGGGAACUAAUUUGUAUGCGAAAGUAUAUUGAUUAGUUUUGGAGUACUCGUGGUCG
Method in brief: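 Colonies from six replicate transformations of E. coli BL21(DE3) were pooled and amplicon-sequenced on an Illumina HiSeq 2500. The library placed an intron with all eight P1ex-region nucleotides randomised inside the knt kanamycin-resistance gene on pET-22b(+), and cells grew overnight at 37°C or 30°C on LB agar with or without 25 μg/mL kanamycin (plus 100 μg/mL carbenicillin, 50 μM IPTG, 0.2% rhamnose). Fitness is the DiMSum error-weighted combination of wild-type-normalised replicate fold changes, kanamycin versus none.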

Sequence | self-splicing fitness (ln) (30 °C) | self-splicing fitness (ln) (37 °C)
GCGCAGCAAUAUUACGUUUG | -1.86 ± 0.14 | -1.76 ± 0.14
UGAUAGCAAUAUUACGAUGG | -1.56 ± 0.11 | -1.72 ± 0.16
UUUCAGCAAUAUUACGUUCG | -1.09 ± 0.085 | -0.545 ± 0.13
UCACAGCAAUAUUACGACCU | -2.97 ± 0.24 | -1.16 ± 0.19
UCAUAGCAAUAUUACGGCAC | -2.93 ± 0.5 | -2.15 ± 0.37
CGAAAGCAAUAUUACGUUGU | -3.63 ± 0.15 | -2.7 ± 0.15
CUCCAGCAAUAUUACGGACG | -0.729 ± 0.059 | -0.666 ± 0.09
ACACAGCAAUAUUACGGCCC | -1.48 ± 0.13 | 0.924 ± 0.21
ACGCAGCAAUAUUACGGUAG | -3.56 ± 0.17 | -2.94 ± 0.19
UUUUAGCAAUAUUACGCGGC | – | -2.34 ± 0.39
CGUCAGCAAUAUUACGCUAU | -3.14 ± 0.19 | -1.55 ± 0.17
UUAAAGCAAUAUUACGAUCG | 0.538 ± 0.098 | 0.338 ± 0.13
UAAUAGCAAUAUUACGAAUC | -4.21 ± 0.31 | -2.34 ± 0.39
GCACAGCAAUAUUACGCGAC | -1.75 ± 0.13 | -1.18 ± 0.16
UCAUAGCAAUAUUACGAAGA | -2.06 ± 0.36 | -1.56 ± 0.38
UCGCAGCAAUAUUACGGCCC | – | -2.41 ± 0.41
AAGGAGCAAUAUUACGAGUC | -3.2 ± 0.47 | -2.05 ± 0.23
CGACAGCAAUAUUACGUGUU | -2.38 ± 0.086 | -3.04 ± 0.17
CGCAAGCAAUAUUACGCUUA | -3.58 ± 0.35 | -1.8 ± 0.18
AACUAGCAAUAUUACGAAUA | -2.71 ± 0.2 | -1.6 ± 0.13
GUUCAGCAAUAUUACGCUGU | -3.2 ± 0.17 | -1.65 ± 0.12
ACUGAGCAAUAUUACGACAU | -2.109 ± 0.015 | -1.12 ± 0.034
CUGAAGCAAUAUUACGGGAU | -1.65 ± 0.076 | -1.07 ± 0.11
AGUCAGCAAUAUUACGUAUG | -3.48 ± 0.18 | -2.43 ± 0.19
GGAAAGCAAUAUUACGAACA | -1.34 ± 0.15 | -0.362 ± 0.15

Sequence | self-splicing fitness (ln) (30 °C) | self-splicing fitness (ln) (37 °C)
UAGUAGCAAUAUUACGCUCA | -0.29 ± 0.13 | 0.69 ± 0.15
GUUUAGCAAUAUUACGGUAU | -2.05 ± 0.14 | 0.286 ± 0.15
UUCUAGCAAUAUUACGAGAG | -2.3 ± 0.22 | -2.4 ± 0.29
AUUGAGCAAUAUUACGUGGG | – | -1.57 ± 0.19
UGGAAGCAAUAUUACGGUUG | -1.46 ± 0.1 | -0.621 ± 0.13
CAUGAGCAAUAUUACGGAAA | -3.26 ± 0.29 | -2.17 ± 0.24
CUGAAGCAAUAUUACGUCUU | -3.7 ± 0.24 | -2.64 ± 0.25
AGUAAGCAAUAUUACGCUGG | -3.89 ± 0.23 | -2.39 ± 0.22
UCUGAGCAAUAUUACGUAGU | -2.3 ± 0.11 | -0.756 ± 0.13
CUGAAGCAAUAUUACGUAGU | -4.3 ± 0.23 | -3.22 ± 0.26
UGUUAGCAAUAUUACGACCA | 0.586 ± 0.18 | -0.351 ± 0.24
CGCGAGCAAUAUUACGAUGC | – | -2.16 ± 0.21
AAGGAGCAAUAUUACGCUUC | – | -1.88 ± 0.39
CGGAAGCAAUAUUACGUUGC | -3.59 ± 0.26 | -2.69 ± 0.48
CGAUAGCAAUAUUACGCCGG | -0.546 ± 0.11 | -0.0292 ± 0.14
CUUCAGCAAUAUUACGAUUC | -2.88 ± 0.21 | -1.85 ± 0.16
GGUUAGCAAUAUUACGCCCU | -0.754 ± 0.45 | -0.983 ± 0.48
UUUAAGCAAUAUUACGAGUU | -2.48 ± 0.17 | -2.09 ± 0.17
CCCAAGCAAUAUUACGCAUG | -3.29 ± 0.2 | -2.34 ± 0.22
GAACAGCAAUAUUACGUUGC | -3.47 ± 0.19 | -3.4 ± 0.29
AUGGAGCAAUAUUACGCGUG | -3.24 ± 0.16 | -1.15 ± 0.14
AUUCAGCAAUAUUACGAUUG | -1.88 ± 0.16 | -1.05 ± 0.2
UUGAAGCAAUAUUACGGGGA | -0.685 ± 0.08 | 0.372 ± 0.12
GAGUAGCAAUAUUACGUACA | -0.962 ± 0.2 | -0.303 ± 0.18
CGUAAGCAAUAUUACGGUCU | -2.56 ± 0.092 | -1.46 ± 0.081

Sequence | self-splicing fitness (ln) (30 °C) | self-splicing fitness (ln) (37 °C)
UACAAGCAAUAUUACGACCU | -0.732 ± 0.068 | -0.688 ± 0.086
AUUGAGCAAUAUUACGUCGU | -1.59 ± 0.15 | -1.69 ± 0.17
AUUAAGCAAUAUUACGACUU | 0.276 ± 0.082 | -0.0124 ± 0.11
UCAGAGCAAUAUUACGUAAG | -2.92 ± 0.14 | -1.82 ± 0.13
CUGCAGCAAUAUUACGAUGU | -3.96 ± 0.23 | -2.71 ± 0.3
AUCCAGCAAUAUUACGCAAU | -1.38 ± 0.064 | -0.773 ± 0.089
GCACAGCAAUAUUACGUGGG | -1.53 ± 0.059 | -1.47 ± 0.067
UGGAAGCAAUAUUACGCUAG | -0.433 ± 0.1 | -0.523 ± 0.17
UACUAGCAAUAUUACGCGUG | -1.21 ± 0.079 | -0.559 ± 0.089
CCAGAGCAAUAUUACGUCAC | -2.34 ± 0.3 | –
CCUGAGCAAUAUUACGCAUG | -4.37 ± 0.34 | -2.27 ± 0.28
CCGUAGCAAUAUUACGUCCA | -2.27 ± 0.28 | -3.26 ± 0.28
CCCGAGCAAUAUUACGUUAG | -3.6 ± 0.17 | -2.8 ± 0.22
CAUCAGCAAUAUUACGGUUA | -0.767 ± 0.1 | -0.102 ± 0.1
AUGCAGCAAUAUUACGGACU | -0.194 ± 0.073 | 0.429 ± 0.094
GCAUAGCAAUAUUACGUGUU | -3.84 ± 0.14 | -2.36 ± 0.088
UCUGAGCAAUAUUACGGGUU | -2.32 ± 0.17 | -2.5 ± 0.24
UUUGAGCAAUAUUACGUUCA | – | -2.38 ± 0.36
GUAAAGCAAUAUUACGGUUG | -2.91 ± 0.21 | -1.41 ± 0.2
GUUAAGCAAUAUUACGGGUC | -1.33 ± 0.34 | -1.77 ± 0.41
UGCCAGCAAUAUUACGUACA | -0.269 ± 0.076 | 0.081 ± 0.089
CGUUAGCAAUAUUACGAGUA | -3.68 ± 0.37 | -2.67 ± 0.36
GCAGAGCAAUAUUACGGGCC | – | -0.867 ± 0.3
GGUUAGCAAUAUUACGUUGU | -2.02 ± 0.15 | -1.71 ± 0.18
UAUCAGCAAUAUUACGCAUA | -0.316 ± 0.11 | 0.0108 ± 0.11

Sequence | self-splicing fitness (ln) (30 °C) | self-splicing fitness (ln) (37 °C)
UCGGAGCAAUAUUACGAGUA | -3.11 ± 0.42 | -1.89 ± 0.31
ACUCAGCAAUAUUACGGACC | -0.551 ± 0.13 | 0.137 ± 0.14
UGUCAGCAAUAUUACGAAAC | – | -0.978 ± 0.25
AUGUAGCAAUAUUACGCGUU | -3.57 ± 0.18 | -1.99 ± 0.17
CGACAGCAAUAUUACGCAGA | -2.61 ± 0.1 | -2.06 ± 0.1
UCCCAGCAAUAUUACGCUGU | -3.99 ± 0.23 | -2.18 ± 0.23
ACGUAGCAAUAUUACGUAAA | -3.11 ± 0.28 | -0.404 ± 0.19
UGUCAGCAAUAUUACGUGUC | – | -2.37 ± 0.21
UCGAAGCAAUAUUACGGUAU | -3.58 ± 0.16 | -1.73 ± 0.14
CAUUAGCAAUAUUACGCAUC | -2.71 ± 0.21 | -1.6 ± 0.27
CAGAAGCAAUAUUACGCACU | -2.13 ± 0.14 | -1.36 ± 0.14
AGGUAGCAAUAUUACGAACU | 0.0152 ± 0.016 | 0.016 ± 0.034
CUCAAGCAAUAUUACGCCCG | -0.954 ± 0.17 | -2.11 ± 0.21
AUUCAGCAAUAUUACGUGCU | -2.95 ± 0.2 | -1.81 ± 0.3
CACUAGCAAUAUUACGGAGG | -2.39 ± 0.1 | -0.627 ± 0.1
UACCAGCAAUAUUACGGACG | -0.177 ± 0.055 | 0.479 ± 0.088
CAUAAGCAAUAUUACGCAGA | -2.5 ± 0.17 | -2.51 ± 0.17
GCAGAGCAAUAUUACGAUCA | -4.02 ± 0.42 | -1.94 ± 0.18
GCUAAGCAAUAUUACGAACU | -0.229 ± 0.079 | 0.203 ± 0.095
GUAGAGCAAUAUUACGCGCG | -0.605 ± 0.07 | -0.12 ± 0.094
ACCGAGCAAUAUUACGGGAU | -3.29 ± 0.13 | -2.5 ± 0.15
CGCGAGCAAUAUUACGACGA | – | -0.89 ± 0.35
UGCUAGCAAUAUUACGUCCU | -1.19 ± 0.12 | -0.143 ± 0.14
